Experimental data as given in patent US20210170047A1 (CASE WESTERN RESERVE UNIVERSITY, published 2021).
Ends that are not written are not given here.

Legend:
[1] = target: T1, integrin αIIbβ3 (glycoprotein GPIIb-IIIa) on ADP-activated human platelets (human, UniProt P08514 32-1039; P05106 27-788); test: cell-based or functional assay
[2] = target: T1, integrin αIIbβ3 (glycoprotein …); test: dual fluorescence microscopy, co-incubation with peptide-modified liposomes
Method: The [fibrinogen: liposome] ratio in the incubation assays was maintained at 400:1 by mole, to provide a physiologically relevant competitive environment. […] A 40× oil-immersion objective was used to visualize fluorescence from platelets. Images were collected in MetaMorph™ (Universal Imaging Corp.), using an exposure time of 500 ms and intensity analysis was performed in the software accordingly. Fluorescence intensity was recorded as mean intensity per pixel area for statistical analysis. All coverslips were prepared in duplicate, and at least three fields were examined for each well.

[3] = target: T2, integrin GPIIb-IIIa on resting (predominantly inactive, no ADP) human platelets (human, UniProt P08514 32-1039; P05106 27-788); test: flow cytometry, human whole blood without agonist
T2 construct: whole, on cells; also called predominantly resting platelets

[4] = target: T3, P-selectin on ADP-activated human platelets (human, UniProt P16109 42-830); test: fluorescence microscopy, static, collagen-adhered activated human platelets
T3 construct: whole, on cells; also called CD62P; P-selectins
T3 sequence (looked up): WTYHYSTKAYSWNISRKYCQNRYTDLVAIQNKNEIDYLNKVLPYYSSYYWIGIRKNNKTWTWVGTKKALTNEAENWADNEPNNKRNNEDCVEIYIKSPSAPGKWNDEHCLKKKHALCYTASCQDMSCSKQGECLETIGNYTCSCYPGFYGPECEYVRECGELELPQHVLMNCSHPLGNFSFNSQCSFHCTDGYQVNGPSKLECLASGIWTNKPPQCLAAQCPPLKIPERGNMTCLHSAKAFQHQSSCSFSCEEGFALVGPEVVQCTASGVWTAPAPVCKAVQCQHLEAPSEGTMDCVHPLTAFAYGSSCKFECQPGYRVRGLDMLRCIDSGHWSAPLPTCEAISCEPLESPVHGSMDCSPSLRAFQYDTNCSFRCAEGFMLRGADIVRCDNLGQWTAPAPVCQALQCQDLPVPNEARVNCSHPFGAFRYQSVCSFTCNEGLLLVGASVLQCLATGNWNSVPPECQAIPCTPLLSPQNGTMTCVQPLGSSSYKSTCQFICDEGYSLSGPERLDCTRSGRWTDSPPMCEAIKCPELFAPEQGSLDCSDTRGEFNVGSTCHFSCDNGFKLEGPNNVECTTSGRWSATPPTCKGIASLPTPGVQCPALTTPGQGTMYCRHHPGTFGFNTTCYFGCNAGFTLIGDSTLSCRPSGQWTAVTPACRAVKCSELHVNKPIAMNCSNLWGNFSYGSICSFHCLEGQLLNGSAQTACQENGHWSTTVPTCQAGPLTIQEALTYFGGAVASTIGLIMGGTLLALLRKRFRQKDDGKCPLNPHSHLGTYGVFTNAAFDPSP
Method: Receptor-specific binding studies in a static environment human whole blood was obtained from healthy, aspirin-refraining donors by venipuncture following IRB-approved protocol and collected in citrated tubes. Platelet-rich-plasma (PRP) was obtained from the whole blood by centrifugation (150×g, 15 min, room temperature), and platelet concentration was verified at 200×10⁶ platelets/ml. The platelets in PRP were activated using ADP at a concentration of 2×10⁻⁵M, and were allowed to adhere to glass coverslips pre-coated with collagen. […] After 1 h of incubation, the coverslips were gently washed with PBS to remove loosely bound liposomal constructs and imaged using fluorescence microscopy. […] D1 inverted fluorescence microscope fitted with a photometrics chilled CCD camera and a 63× objective using exposure time of 800 ms. To confirm that non-specific binding of the liposomes was not occurring, fluorescently-labeled peptide-modified liposomal constructs were incubated with coverslips coated with collagen only but no activated platelets, followed by gentle washing and imaged using fluorescence microscopy keeping same exposure times (800 ms).

[5] = target: T1, integrin αIIbβ3 (glycoprotein …); test: flow cytometry, human whole blood with ADP pre-incubation, 50 µM total lipid
Source text: Parallel phase contrast image of the same field of view was obtained on the same microscope, by shutting off the fluorescence laser, turning on the phase contrast light source and changing the objective from fluorescence to a phase contrast one, at same magnification. To establish that the specific binding of cRGD-liposomes is predominantly to activated platelets compared to quiescent platelets, we performed flow cytometry assays similar to that described in previous publications from our group. Briefly, NBD-labeled cRGD liposomes were incubated with aliquots of freshly drawn human whole blood with or without the addition of agonist ADP. […] Following 30 min of liposome incubation, the aliquots were analyzed in a Becton-Dickinson FACScan flow cytometer for NBD fluorescence. All aliquots were measured in triplicate and approximately 15000 counts were recorded per aliquot. […] The NBD fluorescence intensity from aliquots without liposome incubation, aliquots with liposome incubation but without ADP pre-incubation, and aliquots with liposome incubation after ADP pre-incubation, were recorded as histograms and the plots were overlaid for comparison.

[6] = target: T1, integrin αIIbβ3 (glycoprotein …); test: flow cytometry, agonist-added human whole blood, 50 µM total lipid
Method: The effect of platelet activation on liposome binding was studied by a FACScan flow cytometer (Becton Dickinson) with a 488 nm laser and three color detector. For cytometry analysis whole blood aliquots with different platelet activation levels were used. The level of platelet-activation was assessed by simultaneous fluorescence staining of platelet integrin GPIIb-IIIa (with FITC-anti-CD41a) and P-Selectin (with PE-anti-CD62P). Previously we have reported on detecting progressive activation of platelets in freshly drawn blood with addition of agonists (e.g., ADP) and have confirmed that binding of RGD-modified liposomes to platelets increased in an activation-dependant manner. Following a similar protocol, whole blood aliquots containing predominantly activated platelets were incubated with PDPC-NBD-labeled cRGD-, lRGD-, or lRGE-modified liposomes at a final concentration of 50 μM total lipid. For the liposome incubated samples, FITC-anti-CD41a labeling was not used, while PE-anti-CD62P labeling was still used as an activated platelet marker. Simultaneous PE and NBD fluorescence, for gated platelet populations, was analyzed for ˜20,000 events (counts) per sample aliquot and fluorescence data were recorded accordingly. […]

T1 sequence (P08514 32-1039, chain 1 of 2): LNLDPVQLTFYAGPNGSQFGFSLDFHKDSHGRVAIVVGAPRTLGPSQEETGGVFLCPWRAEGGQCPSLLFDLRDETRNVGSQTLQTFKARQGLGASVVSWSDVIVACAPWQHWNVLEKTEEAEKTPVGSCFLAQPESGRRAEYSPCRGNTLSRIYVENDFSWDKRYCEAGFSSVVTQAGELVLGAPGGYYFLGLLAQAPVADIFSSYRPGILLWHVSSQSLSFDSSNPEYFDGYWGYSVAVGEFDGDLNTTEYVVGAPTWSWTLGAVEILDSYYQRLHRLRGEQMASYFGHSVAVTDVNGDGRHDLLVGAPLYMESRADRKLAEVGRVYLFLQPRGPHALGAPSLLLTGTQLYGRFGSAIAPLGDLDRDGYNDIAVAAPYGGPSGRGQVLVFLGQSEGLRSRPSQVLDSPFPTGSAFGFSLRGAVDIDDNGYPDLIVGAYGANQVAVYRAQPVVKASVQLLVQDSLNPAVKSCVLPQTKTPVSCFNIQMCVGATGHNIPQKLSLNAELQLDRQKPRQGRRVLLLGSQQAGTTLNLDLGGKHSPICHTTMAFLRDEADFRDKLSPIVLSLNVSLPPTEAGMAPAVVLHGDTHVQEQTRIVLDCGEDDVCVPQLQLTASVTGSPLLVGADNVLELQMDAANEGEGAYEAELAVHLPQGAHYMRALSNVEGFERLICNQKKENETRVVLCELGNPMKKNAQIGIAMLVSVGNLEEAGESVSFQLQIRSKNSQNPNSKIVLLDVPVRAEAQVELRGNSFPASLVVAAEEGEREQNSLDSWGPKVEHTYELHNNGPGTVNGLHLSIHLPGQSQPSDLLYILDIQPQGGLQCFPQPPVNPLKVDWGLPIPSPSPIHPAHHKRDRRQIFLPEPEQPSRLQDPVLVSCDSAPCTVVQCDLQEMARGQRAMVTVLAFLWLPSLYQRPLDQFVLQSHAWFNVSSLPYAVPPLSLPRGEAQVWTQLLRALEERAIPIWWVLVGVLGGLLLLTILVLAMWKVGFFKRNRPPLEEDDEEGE
T1 sequence (P05106 27-788, chain 2 of 2): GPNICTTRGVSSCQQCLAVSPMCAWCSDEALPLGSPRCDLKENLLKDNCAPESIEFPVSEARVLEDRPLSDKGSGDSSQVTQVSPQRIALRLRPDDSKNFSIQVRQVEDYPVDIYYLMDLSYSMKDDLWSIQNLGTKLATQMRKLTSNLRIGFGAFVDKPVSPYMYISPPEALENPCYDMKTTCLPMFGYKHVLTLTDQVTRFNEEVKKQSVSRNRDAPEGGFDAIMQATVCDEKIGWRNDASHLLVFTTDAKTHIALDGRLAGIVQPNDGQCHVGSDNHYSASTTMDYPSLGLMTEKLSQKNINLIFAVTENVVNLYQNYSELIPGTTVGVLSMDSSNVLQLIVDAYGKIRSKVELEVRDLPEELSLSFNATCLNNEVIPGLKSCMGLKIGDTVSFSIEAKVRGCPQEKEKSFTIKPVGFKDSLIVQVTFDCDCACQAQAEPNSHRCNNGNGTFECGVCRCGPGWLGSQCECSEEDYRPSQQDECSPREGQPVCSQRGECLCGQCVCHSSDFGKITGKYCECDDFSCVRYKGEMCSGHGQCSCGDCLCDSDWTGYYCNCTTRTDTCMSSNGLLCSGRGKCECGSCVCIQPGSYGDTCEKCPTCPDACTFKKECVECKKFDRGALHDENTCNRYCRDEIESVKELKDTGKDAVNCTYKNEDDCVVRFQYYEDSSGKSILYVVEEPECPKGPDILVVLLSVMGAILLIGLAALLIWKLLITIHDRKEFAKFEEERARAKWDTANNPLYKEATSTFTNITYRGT
T2 sequence (P08514 32-1039, chain 1 of 2): as the sequence (P08514 32-1039, chain 1 of 2) above
T2 sequence (P05106 27-788, chain 2 of 2): as the sequence (P05106 27-788, chain 2 of 2) above

B1: free cyclic RGD peptide cyclo-CNPRGDY(OEt)RC (peptide)
peptide: CNPRGDYRC
modifications: Y(OEt); terminal cysteines (C) cyclized through disulfide
For B1, the “IC50: concentration of peptide required to inhibit fibrinogen-mediated platelet aggregation in platelet-rich plasma by 50% (aggregometry), against lRGD” value [1] was roughly 1000 times lower than for lRGD and the “IC50 estimation by aggregometry assay, against lRGD” value [1] was ~100 fold lower than for lRGD (printed as 2 orders of magnitude).

B2: human fibrinogen (ligand)
chain 1: ADSGEGDFLAEGGGVRGPRVVERHQSACKDSDWPFCSDEDWNYKCPSGCRMKGLIDEVNQDFTNRINKLKNSLFEYQKNNKDSHSLTTNIMEILRGDFSSANNRDNTYNRVSEDLRSRIEVLKRKVIEKVQHIQLLQKNVRAQLVDMKRLEVDIDIKIRSCRGSCSRALAREVDLKDYEDQQKQLEQVIAKDLLPSRDRQHLPLIKMKPVPDLVPGNFKSQLQKVPPEWKALTDMPQMRMELERPGGNEITRGGSTSYGTGSETESPRNPSSAGSWNSGSSGPGSTGNRNPGSSGTGGTATWKPGSSGPGSTGSWNSGSSGTGSTGNQNPGSPRPGSTGTWNPGSSERGSAGHWTSESSVSGSTGQWHSESGSFRPDSPGSGNARPNNPDWGTFEEVSGNVSPGTRREYHTEKLVTSKGDKELRTGKEKVTSGSTTTTRRSCSKTVTKTVIGPDGHKEVTKEVVTSEDGSDCPEAMDLGTLSGIGTLDGFRHRHPDEAAFFDTASTGKTFPGFFSPMLGEFVSETESRGSESGIFTNTKESSSHHPGIAEFPSRGKSSSYSKQFTSSTSYNRGDSTFESKSYKMADEAGSEADHEGTHSTKRGHAKSRPV
chain 2: QGVNDNEEGFFSARGHRPLDKKREEAPSLRPAPPPISGGGYRARPAKAAATQKKVERKAPDAGGCLHADPDLGVLCPTGCQLQEALLQQERPIRNSVDELNNNVEAVSQTSSSSFQYMYLLKDLWQKRQKQVKDNENVVNEYSSELEKHQLYIDETVNSNIPTNLRVLRSILENLRSKIQKLESDVSAQMEYCRTPCTVSCNIPVVSGKECEEIIRKGGETSEMYLIQPDSSVKPYRVYCDMNTENGGWTVIQNRQDGSVDFGRKWDPYKQGFGNVATNTDGKNYCGLPGEYWLGNDKISQLTRMGPTELLIEMEDWKGDKVKAHYGGFTVQNEANKYQISVNKYRGTAGNALMDGASQLMGENRTMTIHNGMFFSTYDRDNDGWLTSDPRKQCSKEDGGGWWYNRCHAANPNGRYYWGGQYTWDMAKHGTDDGVVWMNWKGSWYSMRKMSMKIRPFFPQQ
chain 3: YVATRDNCCILDERFGSYCPTTCGIADFLSTYQTKVDKDLQSLEDILHQVENKTSEVKQLIKAIQLTYNPDESSKPNMIDAATLKSRKMLEEIMKYEASILTHDSSIRYLQEIYNSNNQKIVNLKEKVAQLEAQCQEPCKDTVQIHDITGKDCQDIANKGAKQSGLYFIKPLKANQQFLVYCEIDGSGNGWTVFQKRLDGSVDFKKNWIQYKEGFGHLSPTGTTEFWLGNEKIHLISTQSAIPYALRVELEDWNGRTSTADYAMFKVGPEADKYRLTYAYFAGGDAGDAFDGFDFGDDPSDKFFTSHNGMQFSTWDNDNDKFEGNCAEQDGSGWWMNKCHAGHLNGVYYQGGTYSKASTPNGYDNGIIWATWKTRWYSMKKTTMKIIPFNRLTIGEGQQHHLGGAKQAGDV
notes: the fibrinogen of human platelet-rich plasma in the aggregometry assay; also called Fg
B2: binds [2].

B3: RGE-liposomes (liposomes surface-decorated with the negative control peptide GSSSGRGESPA) (peptide)
peptide: {DSPE‑PEG}-GSSSGRGESPA
modifications: also: displayed on liposome surface, 1 or 5 mol %
notes: also called lRGE-liposomes; constructs bearing negative control peptides
B3: no binding (tested: 50 µM total lipid) [3].

B4: DAEWVDVS-modified liposomes (liposomes surface-decorated with DSPE-PEG-DAEWVDVS) (peptide)
peptide: {DSPE‑PEG}-DAEWVDVS
modifications: also: displayed multivalently on ~150 nm liposome surface, 5 mol % (2.5-10 mol %)
notes: also called singly-targeted liposomes
B4: binds [4].

B5: cRGD-liposomes (liposomes surface-decorated with DSPE-PEG-cRGD, cyclo-CNPRGDY(OEt)RC) (peptide)
peptide: CNPRGDYRC
modifications: not fully specified; Y(OEt); terminal cysteines cyclized through disulfide; N-terminus conjugated to DSPE-PEG lipid, displayed on the liposome surface
notes: NBD or Nanogold label; also called cyclic RGD-modified liposomes
In the case of B5, the “NBD fluorescence of ADP-activated platelets against inactive platelets” value [5] is reported as ~100 fold (printed as two orders of magnitude) and the “platelet-associated NBD fluorescence against lRGD-liposome-incubated aliquots” value [6] is reported as ~10 fold (printed as an order of magnitude).
